Key:
[1] = tested on: T1, CC6, 5FAM-KYLGRSYKV-K(CPQ2)-C
T1 sequence: KYLGRSYKVKC

[2] = tested on: T2, CC9, 5FAM-GLQRALEI-K(CPQ2)-k-C
T2 sequence: GLQRALEIKKC

[3] = tested on: T3, KTTGGRIYGG
T3 sequence: KTTGGRIYGG

[4] = tested on: T4, QARGGSK
T4 sequence: QARGGSK

Sequence of Plasmin (P00747 20-580): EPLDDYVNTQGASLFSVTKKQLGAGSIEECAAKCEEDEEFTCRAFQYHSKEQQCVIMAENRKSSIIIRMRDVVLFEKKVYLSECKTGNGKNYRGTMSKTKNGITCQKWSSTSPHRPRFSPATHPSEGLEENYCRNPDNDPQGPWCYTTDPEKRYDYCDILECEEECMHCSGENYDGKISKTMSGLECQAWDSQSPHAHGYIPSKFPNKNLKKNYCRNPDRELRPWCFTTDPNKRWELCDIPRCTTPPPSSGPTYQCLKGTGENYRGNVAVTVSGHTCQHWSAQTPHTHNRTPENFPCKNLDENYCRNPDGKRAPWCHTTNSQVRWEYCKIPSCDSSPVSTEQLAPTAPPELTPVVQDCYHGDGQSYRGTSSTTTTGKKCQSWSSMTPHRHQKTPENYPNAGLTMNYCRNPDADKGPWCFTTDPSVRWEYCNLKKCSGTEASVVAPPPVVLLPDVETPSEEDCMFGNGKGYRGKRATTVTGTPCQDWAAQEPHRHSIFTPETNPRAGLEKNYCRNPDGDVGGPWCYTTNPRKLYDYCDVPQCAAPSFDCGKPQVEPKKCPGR
Sequence of Plasmin (P00747 581-810): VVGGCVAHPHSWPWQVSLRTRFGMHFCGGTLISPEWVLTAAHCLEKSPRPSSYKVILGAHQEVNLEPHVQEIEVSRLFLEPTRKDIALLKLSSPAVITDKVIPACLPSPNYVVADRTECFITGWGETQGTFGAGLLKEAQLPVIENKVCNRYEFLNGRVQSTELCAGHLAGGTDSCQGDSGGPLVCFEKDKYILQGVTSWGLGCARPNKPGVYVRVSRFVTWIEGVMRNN

| Substance | relative cleavage velocity (L-gate) [1] | relative cleavage velocity (state 1 probability) after the first U-gate [1] [%] | relative cleavage velocity (state 0 probability) after the first U-gate [2] [%] | relative cleavage velocity (state 0 probability) after the second U-gate (state 0 substrate in large molar excess) [2] [%] | protease cleavage velocity [3] | protease cleavage velocity [4] |
| --- | --- | --- | --- | --- | --- | --- |
| Plasmin | adding substrate-1 (KYLGRSYKV (SEQ ID NO:5)) to control b0 (e.g., plasmin) and target bi (e.g., thrombin) at a concentration such that the relative cleavage velocities (rcv) were matched | 55 | 45 | 93 |  |  |
| Thrombin | adding substrate-1 (KYLGRSYKV (SEQ ID NO:5)) to control b0 (e.g., plasmin) and target bi (e.g., thrombin) at a concentration such that the relative cleavage velocities (rcv) were matched |  |  |  | thrombin cleaving two different peptide substrates (KTTGGRIYGG (SEQ ID NO:2) and QARGGSK (SEQ ID NO:3)) | thrombin cleaving two different peptide substrates (KTTGGRIYGG (SEQ ID NO:2) and QARGGSK (SEQ ID NO:3)) |

— patent publication US20220249369
